Data from paper PMC10713844, “Characterization of the enzyme kinetics of EMP and HMP pathway in Corynebacterium glutamicum: reference for modeling metabolic networks” (Frontiers in Bioengineering and Biotechnology, 2023).

Legend:
Experiment in all cases: initial-rate kinetics, Michaelis-Menten fit
Assay type in all cases: biochemical, Corynebacterium glutamicum
Conditions in all cases: PBS with 0.5 mM MgCl2, pH 7.4, 37 °C
[1] = substrate: O=C(CO)[C@H](O)[C@H](O)COP(=O)(O)O
Excerpt: initial-rate kinetics, Michaelis-Menten fit on RPE (ribulose-5-phosphate 3-epimerase)

[2] = substrate: O=C(CO)COP(=O)(O)O
Excerpt: initial-rate kinetics, Michaelis-Menten fit on TPI (triosephosphate isomerase)

[3] = substrate: O=C[C@H](O)COP(=O)(O)O
Excerpt: initial-rate kinetics, Michaelis-Menten fit on TAL (transaldolase)

[4] = substrate: O=C[C@H](O)COP(=O)(O)O; remark: listed apart in the source
Excerpt: initial-rate kinetics, Michaelis-Menten fit on GAPDH (glyceraldehyde 3-phosphate dehydrogenase)

[5] = substrate: O=C(O)[C@@H](CO)OP(=O)(O)O
Excerpt: initial-rate kinetics, Michaelis-Menten fit on ENO (enolase; ENO-Y)

[6] = substrate: O=C(O)[C@H](O)COP(=O)(O)O
Excerpt: initial-rate kinetics, Michaelis-Menten fit on PGMA / PMGA / pgma (phosphoglycerate mutase)

[7] = substrate: O=C(CO)[C@H](O)[C@H](O)COP(=O)(O)O; remark: listed apart in the source
Excerpt: initial-rate kinetics, Michaelis-Menten fit on RPI (ribose-5-phosphate isomerase)

[8] = substrate: Nc1ncnc2c1ncn2[C@@H]1O[C@H](COP(=O)(O)OP(=O)(O)OP(=O)(O)O)[C@@H](O)[C@H]1O
Excerpt: initial-rate kinetics, Michaelis-Menten fit on GLK (glucokinase)

B1: RPE (ribulose-5-phosphate 3-epimerase) (Corynebacterium glutamicum ATCC 13032) (protein)
chain: MAQRTPLIAPSILAADFSRLGEQVLAVPDADWIHVDIMDGHFVPNLSFGADITAAVNRVTDKELDVHLMIENPEKWVDNYIDAGADCIVFHVEATEGHVELAKYIRSKGVRAGFSLRPGTPIEDYLDDLEHFDEVIVMSVEPGFGGQSFMPEQLEKVRTLRKVIDERGLNTVIEIDGGISAKTIKQAADAGVDAFVAGSAVYGAEDPNKAIQELRALAQ
B1 showed a Km [1] of 2810 ± 1250 µM, a Vmax [1] of 430 µmol/min/mg and a kcat [1] of 179 ± 22.2 s⁻¹.

B2: TPI (triosephosphate isomerase) (Corynebacterium glutamicum ATCC 13032) (protein)
chain: MARKPLIAGNWKMNLDHQQAIGTVQKLAFALPKEYFEKVDVAVTVPFTDIRSVQTLVEGDKLEVTFGAQDVSQHESGAYTGEVSASMLAKLNCSWVVVGHSERREYHNESDELVAAKAKAALSNGISPIVCVGEPLEIREAGTHVEYVVEQTRKSLAGLDAAELANTVIAYEPVWAIGTGKVASAADAQEVCKAIRGLIVELAGDEVAEGLRILYGGSVKAETVAEIVGQPDVDGGLVGGASLDGEAFAKLAANAASVA
B2 showed a Km [2] of 5430 ± 160 µM, a Vmax [2] of 160 µmol/min/mg and a kcat [2] of 75.7 ± 2.11 s⁻¹.

B3: TAL (transaldolase) (Corynebacterium glutamicum ATCC 13032) (protein)
chain: MSHIDDLAQLGTSTWLDDLSRERITSGNLSQVIEEKSVVGVTTNPAIFAAAMSKGDSYDAQIAELKAAGASVDQAVYAMSIDDVRNACDLFTGIFESSNGYDGRVSIEVDPRISADRDATLAQAKELWAKVDRPNVMIKIPATPGSLPAITDALAEGISVNVTLIFSVARYREVIAAFIEGIKQAAANGHDVSKIHSVASFFVSRVDVEIDKRLEAIGSDEALALRGKAGVANAQRAYAVYKELFDAAELPEGANTQRPLWASTGVKNPAYAATLYVSELAGPNTVNTMPEGTIDAVLEQGNLHGDTLSNSAAEADAVFSQLEALGVDLADVFQVLETEGVDKFVASWSELLESMEARLK
B3 was tested, and the Km [3] was 290 ± 80 µM, the Vmax [3] was 6.44 µmol/min/mg and the kcat [3] was 4.24 ± 0.47 s⁻¹.

B4: GAPDH (glyceraldehyde 3-phosphate dehydrogenase) (Corynebacterium glutamicum ATCC 13032) (protein)
chain: MTIRVGINGFGRIGRNFFRAVLERSDDLEVVAVNDLTDNKTLSTLLKFDSIMGRLGQEVEYDDDSITVGGKRIAVYAERDPKNLDWAAHNVDIVIESTGFFTDANAAKAHIEAGAKKVIISAPASNEDATFVYGVNHESYDPENHNVISGASCTTNCLAPMAKVLNDKFGIENGLMTTVHAYTGDQRLHDAPHRDLRRARAAAVNIVPTSTGAAKAVALVLPELKGKLDGYALRVPVITGSATDLTFNTKSEVTVESINAAIKEAAVGEFGETLAYSEEPLVSTDIVHDSHGSIFDAGLTKVSGNTVKVVSWYDNEWGYTCQLLRLTELVASKL
Protein B4 has a Km [4] of 1470 ± 110 µM, a Vmax [4] of 15.7 µmol/min/mg and a kcat [4] of 9.71 ± 0.36 s⁻¹.

B5: ENO (enolase; ENO-Y) (Corynebacterium glutamicum ATCC 13032) (protein)
chain: MAEIMHVFAREILDSRGNPTVEAEVFLDDGSHGVAGVPSGASTGVHEAHELRDGGDRYLGKGVLKAVENVNEEIGDELAGLEADDQRLIDEAMIKLDGTANKSRLGANAILGVSMAVAKAAADSAGLPLFRYIGGPNAHVLPVPMMNIINGGAHADSGVDVQEFMIAPIGAETFSEALRNGAEVYHALKSVIKEKGLSTGLGDEGGFAPSVGSTREALDLIVEAIEKAGFTPGKDIALALDVASSEFFKDGTYHFEGGQHSAAEMANVYAELVDAYPIVSIEDPLQEDDWEGYTNLTATIGDKVQIVGDDFFVTNPERLKEGIAKKAANSILVKVNQIGTLTETFDAVDMAHRAGYTSMMSHRSGETEDTTIADLAVALNCGQIKTGAPARSDRVAKYNQLLRIEQLLGDAGVYAGRSAFPRFQG
B5 gave a Km [5] of 60 ± 10 µM.

B6: PGMA / PMGA / pgma (phosphoglycerate mutase) (Corynebacterium glutamicum ATCC 13032) (protein)
chain: MTNGKLILLRHGQSEWNASNQFTGWVDVNLTEQGEAEAKRGGELLVEAGVLPGVVYTSLLRRAIRTANIALNAADRHWIPVIRDWRLNERHYGALQGLDKAATKEKYGDDQFMEWRRSYDTPPPELADDAEYSQANDPRYADLDVVPRTECLKDVVVRFVPYFEEEILPRAKKGETVLIAAHGNSLRALVKHLDGISDADIAELNIPTGIPLVYEIAEDGSVVNPGGTYLDPEAAAAGAAAVANQGNK
In the case of B6, the Km [6] is reported as 4440 ± 320 µM, the Vmax [6] is reported as 43.2 µmol/min/mg and the kcat [6] is reported as 20.4 ± 1.05 s⁻¹.

B7: RPI (ribose-5-phosphate isomerase) (Corynebacterium glutamicum ATCC 13032) (protein)
chain: MRVYLGADHAGFETKNAIAEHLKAHGHEVIDCGAHTYDAEDDYPAFCIEAASRTVNDPGSLGIVLGGSGNGEQIAANKVKGARCALAWSVETARLAREHNNANLIGIGGRMHSEEEALAIVDAFLEQEWSNAERHQRRIDILADYERTGIAPVVPNE
B7 was tested, and the Km [7] was 420 ± 60 µM, the Vmax [7] was 11.2 µmol/min/mg and the kcat [7] was 3.39 ± 0.22 s⁻¹.

B8: GLK (glucokinase) (Corynebacterium glutamicum ATCC 13032) (protein)
chain: MPQKPASFAVGFDIGGTNMRAGLVDESGRIVTSLSAPSPRTTQAMEQGIFDLVEQLKAEYPVGAVGLAVAGFLDPECEVVRFAPHLPWRDEPVREKLENLLGLPVRLEHDANSAAWGEHRFGAAQGADNWVLLALGTGIGAALIEKGEIYRGAYGTAPEFGHLRVVRGGRACACGKEGCLERYCSGTALVYTARELASHGSFRNSGLFDKIKADPNSINGKTITAAARQEDPLALAVLEDFSEWLGETLAIIADVLDPGMIIIGGGLSNAADLYLDRSVNHYSTRIVGAGYRPLARVATAQLGADAGMIGVADLARRSVVEAN
In the case of B8, the Km [8] is reported as 810 ± 80 µM, the Vmax [8] is reported as 37.7 µmol/min/mg and the kcat [8] is reported as 22.2 ± 1.07 s⁻¹.
